Measured values as given in paper PMC5800781 (Nature, 2017).

T1: BARD1 (human, UniProt Q99728 1-777)
T1 sequence (looked up): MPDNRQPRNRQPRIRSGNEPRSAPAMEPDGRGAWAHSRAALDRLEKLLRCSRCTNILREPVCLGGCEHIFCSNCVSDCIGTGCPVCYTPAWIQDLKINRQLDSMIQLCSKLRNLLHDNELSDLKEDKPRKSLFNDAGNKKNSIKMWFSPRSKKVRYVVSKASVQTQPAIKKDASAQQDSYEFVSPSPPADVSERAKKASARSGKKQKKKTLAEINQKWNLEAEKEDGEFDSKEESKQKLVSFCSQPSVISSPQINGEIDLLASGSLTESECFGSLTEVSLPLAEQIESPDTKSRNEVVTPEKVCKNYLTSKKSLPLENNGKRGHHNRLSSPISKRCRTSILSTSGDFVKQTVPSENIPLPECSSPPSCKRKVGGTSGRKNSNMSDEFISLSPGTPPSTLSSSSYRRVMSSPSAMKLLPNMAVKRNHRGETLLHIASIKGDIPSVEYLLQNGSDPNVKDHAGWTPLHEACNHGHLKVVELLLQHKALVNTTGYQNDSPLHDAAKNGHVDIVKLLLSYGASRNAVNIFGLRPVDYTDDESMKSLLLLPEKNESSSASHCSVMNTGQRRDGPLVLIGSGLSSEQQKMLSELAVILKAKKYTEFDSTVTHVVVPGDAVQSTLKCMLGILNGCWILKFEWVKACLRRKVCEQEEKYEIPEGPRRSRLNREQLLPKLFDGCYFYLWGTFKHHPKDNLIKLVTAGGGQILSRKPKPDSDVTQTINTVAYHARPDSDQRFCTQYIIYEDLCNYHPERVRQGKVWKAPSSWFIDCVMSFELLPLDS

B1: GST-BARD1^123-162 (domain or fragment, human, UniProt Q99728 123-162, looked up)
chain: LKEDKPRKSLFNDAGNKKNSIKMWFSPRSKKVRYVVSKAS
B2: RAD51 (natural protein, human, UniProt Q06609 1-339, looked up)
chain: MAMQMQLEANADTSVEEESFGPQPISRLEQCGINANDVKKLEEAGFHTVEAVAYAPKKELINIKGISEAKADKILAEAAKLVPMGFTTATEFHQRRSEIIQITTGSKELDKLLQGGIETGSITEMFGEFRTGKTQICHTLAVTCQLPIDRGGGEGKAMYIDTEGTFRPERLLAVAERYGLSGSDVLDNVAYARAFNTDHQTQLLYQASAMMVESRYALLIVDSATALYRTDYSGRGELSARQMHLARFLRMLLRLADEFGVAVVITNQVVAQVDGAAMFAADPKKPIGGNIIAHASTTRLYLRKGRGETRICKIYDSPCLPEAEAMFAINADGVGDAKD

Columns and labels:
[1] = molecular target: B2; experiment: pull-down
[2] = molecular target: BRCA1^1-500-BARD1 complex ( | human, UniProt P38398 1-500; Q99728 1-777); experiment: pull-down
[3] = molecular target: BRCA1-BARD1 complex ( | human, UniProt P38398 1-1863; Q99728 1-777); experiment: pull-down
[4] = molecular target: BRCA1^Δ758-1064-BARD1 complex ( | human, UniProt P38398 1-1863; Q99728 1-777, Δ758-1064); experiment: pull-down
[5] = molecular target: T1, BARD1; experiment: far-Western, overlay or dot blot
[6] = molecular target: BRCA1 (UniProt P38398 1-1863); experiment: far-Western, overlay or dot blot

binding result [1] | binding result [2] | binding result [3] | binding result [4] | binding result [5] | binding result [6] | Binder
binds |  |  |  |  |  | B1
 | binds | binds | binds | binds | binds | B2
